Key:
[1] = system: WT pups subjected to oxygen-induced retinopathy (OIR); test: OIR mouse model: Western blotting and immunolabelling of retina (A1, cleaved PARP, calbindin horizontal cells); assay type: in vivo
Procedure: Western blotting analysis: Retina lysates were homogenized in RIPA buffer supplemented with protease and phosphatase inhibitors. Samples (20 μg protein) were run on 10% sodium dodecyl sulfate-polyacrylamide gel electrophoresis, transferred to nitrocellulose membrane and reacted with primary antibody followed by horseradish peroxidase-linked secondary antibody and enhanced chemiluminescence (Amersham Pharmacia). β-actin (mouse monoclonal antibody, 1:5000, Sigma-Aldrich) or GAPDH served as a loading control. The following primary antibodies were used: GFAP, PARP, A1.
Immunofluorescence labelling: PFA fixed eyeballs were washed in PBS and cryoprotected. Cryostat sections (15 μm) were permeabilized in 1% Triton (20 min) and blocked in 10% normal goat serum containing 1% BSA (one hour). Sections were then incubated overnight in primary antibodies at 4° C. On day two, the sections were incubated at room temperature for 1 hour in fluorescent conjugated secondary antibodies (Life Technologies), washed in PBS and mounted with Vectashield (Vector Laboratories)
PBS was used as vehicle control. Pups were anesthetized before treatment by intraperitoneal (i.p.) injection of ketamine/xylazine mixture. Intravitreal injections were performed using a 36-gauge NanoFil needle mounted to a 10-μL Hamilton syringe (World Precision Instruments). Two treatment strategies were employed. […]

[2] = system: OIR retinas (TNFα, IL-6, MCP1, iNOS, A1, FGF2, CNTF, IL-10 mRNA); test: OIR mouse model: qPCR of retinal inflammation markers and growth factors; assay type: in vivo
Procedure: PBS was used as vehicle control. Pups were anesthetized before treatment by intraperitoneal (i.p.) injection of ketamine/xylazine mixture. Intravitreal injections were performed using a 36-gauge NanoFil needle mounted to a 10-μL Hamilton syringe (World Precision Instruments). Two treatment strategies were employed. […] The P9 time point was selected based on the fact that vaso-obliteration occurs within the first 48 hours of hyperoxia treatment (Connor, et al., Nature Protocols, 4:1565-1573 (2009); Lange, et al., Graefe's archive for clinical and experimental ophthalmology, 247:1205-1211 (2009); Gu, et al., Investigative ophthalmology & visual science, 43:496-502 (2002)).
However, variability was relatively high in the OIR retinas and this protective effect was statistically significant only for TNFα.

[3] = Retinal ischemia-reperfusion (IR) injury: PEG-A1 penetration of the blood-retina barrier (anti-PEG Western blot, flat-mount immunolabeling); assay type: in vivo, mouse
Procedure: Mouse retinal ischemia-reperfusion (IR) injury and traumatic optic neuropathy (TON) models: All experiments were performed in accordance with the ARVO Statement for the Use of Animals in Ophthalmic and Vision Research and were approved by the institutional animal care and use committee (Animal Welfare Assurance no. D16-00197). Wild-type (WT) C57BL/6J mice (10-12 weeks old) were anesthetized using ketamine/xylazine mixture then subjected to retinal ischemia-reperfusion (IR) injury or optic nerve crush (ONC) to model traumatic optic neuropathy (TON) as described in Shosha, et al., Cell death & disease, 7:e2483-e (2016) and Xu, et al., Frontiers in Neuroscience, 12:970 (2018). Mice were sacrificed at 24 hours or 7 days after by deep anesthesia followed by trans-cardial perfusion with PBS or thoracotomy and eyeballs were collected and fixed in 4% PFA for immunolabeling or retinas were extracted without fixation and homogenized in Radioimmunoprecipitation Assay (RIPA) lysis buffer for Western blotting.
Western blotting: Western blotting on retina or brain was conducted as described in Fouda, A Y, et al., Cell death & Disease, 9:1001 (2018). Membranes were probed with anti-PEG (RevMAb Biosciences, 1:1000) and anti-albumin (Bethyl Laboratories, 1:5000). Uncropped blots are included in FIG. 22.
Fluorescent immunolabeling: Retinal flat-mounts were permeabilized and immunolabeled with anti-PEG antibody (RevMAb Biosciences, 1:400) and co-stained with Alex594-labeled Griffonia simplicifolia isolectin B4 (1:200; Invitrogen) as described in Shosha, et al., Cell death & disease, 7:e2483-e (2016).
Mice were deeply anesthetized and sacrificed 24 hours later by trans-cardial perfusion with PBS (FIG. 16A). […] These mice were sacrificed at day 7 without trans-cardial perfusion and retina flat-mounts were immunolabeled to show PEG distribution within the retina (FIG. 16D).
PEG-A1 treatment in acute retinal and brain injury mouse models: A pharmaceutical grade of PEG-A1 was provided as a kind gift from Bio-Cancer Treatment International Limited (BCT, Hong Kong). […] Methoxy polyethylene glycol propionic acid (MW 5,000—Sigma, Catalog number 88908-1G-F) was used as vehicle control.

[4] = system: bone marrow-derived macrophages (BMDMs); test: PEG-A1 intracellular uptake by bone marrow-derived macrophages (anti-PEG Western blot); assay type: cell-based, mouse; conditions: BMDMs treated overnight, washed with PBS
Procedure: BMDMs: Bone marrow-derived macrophages (BMDMs) were freshly isolated from WT mice and differentiated in culture as described in Fouda, A Y, et al., Cell death & Disease, 9:1001 (2018). To determine PEG-A1 intracellular uptake by macrophages, BMDMs were treated overnight with PEG-A1 or vehicle and then washed several times with phosphate buffered saline (PBS) before collection in RIPA buffer for Western blotting.
Previous studies have shown that myeloid specific A1 deletion using the LysM cre mice leads to increased neurodegeneration in the retinal IR model (Fouda, A Y, et al., Cell death & Disease, 9:1001 (2018)). […] To test the effect of possible neuronal A1 deletion on the previously reported IR outcome in these mice, control and myeloid-specific A1 KO retina explants were subjected to OGD/R (3 hours/21 hours) (FIG. 21A). The explant model excludes any effects due to infiltrating myeloid cells. […] To further test if macrophage can incorporate PEG-A1, BMDMs were treated with PEG-A1 or vehicle overnight and then washed with PBS several times before Western blotting.

[5] = previously reported (De Santo 2018); cited from earlier work
[6] = OIR retinas, P13 or P17, not statistically significant
[7] = OIR retinas, did not reach statistical significance
[8] = 25 mg/kg i.p. at 3 hours after reperfusion, 24 hours, perfused
[9] = 25 mg/kg i.p. at 3 hours and day 4, day 7, no perfusion

B1: PEG-A1: recombinant human arginase (rhArg) covalently attached to methoxy polyethylene glycol (mPEG-SPA; MW 5,000) via succinamide propionic acid (SPA) linker (protein, UniProt P05089 1-322, looked up)
Arginase-1: MSAKSRTIGIIGAPFSKGQPRGGVEEGPTVLRKAGLLEKLKEQECDVKDYGDLPFADIPNDSPFQIVKNPRSVGKASEQLAGKVAEVKKNGRISLVLGGDHSLAIGSISGHARVHPDLGVIWVDAHTDINTPLTTTSGNLHGQPVSFLLKELKGKIPDVPGFSWVTPCISAKDIVYIGLRDVDPGEHYILKTLGIKYFSMTEVDRLGIGKVMEETLSYLLGRKKRPIHLSFDVDGLDPSFTPATGTPVVGGLTYREGLYITEEIYKTGLLSGLDIMEVNPSLGKTPEEVTRTVNTAVAITLACFGLAREGNHKPIDYLNPPK
modifications: mPEG-SPA 5 kDa conjugate
notes: recombinant human arginase (rhArg) covalently attached to methoxy polyethylene glycol (mPEG-SPA; MW 5,000) via succinamide propionic acid (SPA) linker
[1]; P17, compared to vehicle treatment
  OIR-induced calbindin-positive horizontal cell loss: significantly rescued
[1]; P17 OIR retinal lysates
  cleavage of the pro-apoptotic marker PARP (Western blot): significantly reduced
[2]; OIR WT retinas
  iNOS mRNA levels: significantly reduced
[2]; OIR retinas
  A1 mRNA: mRNA upregulation
  FGF2 mRNA: mRNA upregulation
[2]; [6]
  IL-6 expression (qPCR): reduced the expression
  MCP1 expression (qPCR): reduced the expression
[2]; OIR retinas, P13 or P17, statistically significant
  TNFα expression (qPCR): reduced the expression
[2]; [7]
  CNTF mRNA: mRNA upregulation
  IL-10 mRNA: mRNA upregulation
[3]; [8]
  anti-PEG immunoreactivity in liver homogenates (Western blot): strong band
  anti-PEG reactivity in retina homogenates, IR-injured retinas: strong anti-PEG reactivity
  anti-PEG reactivity in retina homogenates, sham eyes: faint anti-PEG reactive bands
[3]; [9]
  PEG distribution within the retina (flat-mount immunolabeling), IR-injured retinas: more diffuse signal
  PEG distribution within the retina (flat-mount immunolabeling), sham retinas: restricted to a vessel-like network
[4]
  anti-PEG band in macrophage cell lysate (intracellular uptake): strong band
[5]
  CNS penetration: poor CNS penetration

From patent US20210340516A1, “COMPOSITIONS CONTAINING ARGINASE 1 FOR THE TREATMENT OF NEUROVASCULAR AND RETINAL VASCULAR DISORDERS” (Augusta University Research Institute, Inc., priority 2020, published 2021)
